Two molecules from patent US20170233485A1 (Biogen, published 2017) can be followed below.

Test [1] has as its target T1, human CD40 (cell surface) (human, UniProt P25942 20-277). Put plainly: cell-based or functional assay.
Test [2] concerns the target T1, human CD40 (cell surface). In words: FACS, A647-conjugated mAb on primary B cells in human whole blood. A general note: A flow cytometer gives signals particle by particle.
The target in test [3] is T2, mouse CD40 (cell surface) (mouse, UniProt P27512 20-289).
T2 construct: whole, on cells; also called murine CD40
T2 sequence (looked up): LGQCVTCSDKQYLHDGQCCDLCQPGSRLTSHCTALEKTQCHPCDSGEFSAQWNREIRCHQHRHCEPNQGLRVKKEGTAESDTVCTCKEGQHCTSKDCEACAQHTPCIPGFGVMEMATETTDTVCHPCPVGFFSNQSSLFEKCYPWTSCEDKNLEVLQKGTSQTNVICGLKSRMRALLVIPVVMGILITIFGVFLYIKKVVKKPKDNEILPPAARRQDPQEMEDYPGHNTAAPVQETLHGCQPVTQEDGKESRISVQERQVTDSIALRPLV
In words: flow cytometry on 293E transfected cells.

Test [4] addresses T3, human FcγR CD16a V158-GST fusion protein (human, UniProt P08637 17-208, limits assumed).
T3 construct: FcγR-GST fusion protein on anti-GST acceptor beads; also called FcγRIIIA; not shown: GST
In words: ALPHAscreen competition: test antibody displaces biotinylated IgG1 from FcγR-GST. As for the experimental part: (§1) In order to confirm the expected reduced binding profile of Exemplary Anti-CD40 Antibody 1 to human FcγR, relative binding affinities were measured using Amplified Luminescent Proximity Homogeneous Assay (ALPHAscreen) technology from Perkin Elmer. With this technology, binding pairs are immobilized onto “donor” and “acceptor” beads. Upon laser excitation, donor beads release singlet oxygen that reacts with acceptor beads in close proximity (≦200 nm) generating a cascade of events that ultimately results in fluorescence emission at 520-620 nm.
(§2) The chimeric AKH3 antibody constructs with the human IgG1 and aglycosyl IgG4P/G1 Fc regions were included in the FcγR and C1q assays as Fc competent and Fc-effectorless comparators, respectively. The assay was performed in a competitive format in which binding of test antibodies to FcγR disrupts the interaction of biotinylated IgG1 and FcγR-GST fusion protein immobilized on Streptavidin donor beads and anti-GST acceptor beads respectively. The plates were read using an Envision plate reader (Perkin Elmer) and the resulting relative fluorescence units (RFU) were plotted versus the concentration of test IgG as shown in FIG. 26.
On the technique in general: Alpha assays give light when donor and acceptor beads are brought close together.

Test [5] concerns the target T4, human FcγR CD64-GST fusion protein (human, UniProt P12314 16-292, limits assumed).
T4 construct: FcγR-GST fusion protein on anti-GST acceptor beads; also called FcγRI; not shown: GST
The test is described as above. How it is done:
as §1, §2

In test [6] the target is T5, human FcγR CD32a R131-GST fusion protein (human, UniProt P12318 34-217, limits assumed).
T5 construct: FcγR-GST fusion protein on anti-GST acceptor beads; also called FcγRIIa; not shown: GST
T5 sequence (looked up): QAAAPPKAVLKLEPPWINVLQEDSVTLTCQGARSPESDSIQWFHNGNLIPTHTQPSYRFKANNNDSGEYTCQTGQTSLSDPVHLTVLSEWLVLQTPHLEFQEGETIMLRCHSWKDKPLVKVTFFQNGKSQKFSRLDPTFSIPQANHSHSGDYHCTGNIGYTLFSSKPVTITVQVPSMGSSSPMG
The description is as above. As for the experimental part:
as §1, §2

The target of test [7] is T6, human FcγR CD32b-GST fusion protein (human, UniProt P31994 43-217, limits assumed).
T6 construct: FcγR-GST fusion protein on anti-GST acceptor beads; also called FcγRIIB; not shown: GST
T6 sequence (looked up): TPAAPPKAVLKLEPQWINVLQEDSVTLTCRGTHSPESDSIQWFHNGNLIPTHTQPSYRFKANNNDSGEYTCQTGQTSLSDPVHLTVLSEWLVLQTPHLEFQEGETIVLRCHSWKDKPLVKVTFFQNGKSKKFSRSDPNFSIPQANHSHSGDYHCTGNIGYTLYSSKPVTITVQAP
The description is as above. How it is done: as §1, §2

The target in test [8] is T7, human CD40 H78Q, full length, on 293E cells (human, UniProt P25942 20-277).
T7 construct: also called CN916
T7 sequence (P25942 20-277 H78Q limits assumed): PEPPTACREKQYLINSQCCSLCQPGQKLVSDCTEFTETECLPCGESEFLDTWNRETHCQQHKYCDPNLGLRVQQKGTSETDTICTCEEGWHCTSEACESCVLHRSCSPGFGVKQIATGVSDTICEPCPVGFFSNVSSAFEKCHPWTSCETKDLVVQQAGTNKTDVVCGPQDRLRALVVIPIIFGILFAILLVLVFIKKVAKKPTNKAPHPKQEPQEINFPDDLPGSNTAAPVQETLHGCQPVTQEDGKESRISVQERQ
Put plainly: binding to CD40 SNP variants expressed on 293E cells (data not shown). An excerpt: The prevalence of these SNPs is quite rare, believed to be at or below the 3% range. Exemplary Anti-CD40 Antibody 1 bound to 6 of the CD40 proteins encoded by DNA sequences containing SNPs comparably to WT CD40, but more weakly to H78Q and R90W (reduced plateau) and not quantifiably to C77F (data not shown).

Test [9] deals with T8, human C1q (human, UniProt P02745 23-245; P02746 28-253; P02747 29-245).
T8 construct: the three subunits are from general knowledge; also called Complement protein C1q
T8 sequence (P02745 23-245 limits assumed, chain 1 of 3): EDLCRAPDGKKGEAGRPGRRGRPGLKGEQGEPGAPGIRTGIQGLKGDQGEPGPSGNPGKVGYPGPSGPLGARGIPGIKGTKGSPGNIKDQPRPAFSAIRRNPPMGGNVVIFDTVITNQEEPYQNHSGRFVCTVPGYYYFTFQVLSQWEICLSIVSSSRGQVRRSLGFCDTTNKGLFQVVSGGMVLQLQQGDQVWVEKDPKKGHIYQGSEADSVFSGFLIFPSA
T8 sequence (P02746 28-253 limits assumed, chain 2 of 3): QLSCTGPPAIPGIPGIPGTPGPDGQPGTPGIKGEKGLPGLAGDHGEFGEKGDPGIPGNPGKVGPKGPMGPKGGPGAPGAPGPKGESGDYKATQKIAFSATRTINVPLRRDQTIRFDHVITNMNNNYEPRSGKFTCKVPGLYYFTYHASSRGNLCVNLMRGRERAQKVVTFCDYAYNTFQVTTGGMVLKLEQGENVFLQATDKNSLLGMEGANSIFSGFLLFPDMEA
T8 sequence (P02747 29-245 limits assumed, chain 3 of 3): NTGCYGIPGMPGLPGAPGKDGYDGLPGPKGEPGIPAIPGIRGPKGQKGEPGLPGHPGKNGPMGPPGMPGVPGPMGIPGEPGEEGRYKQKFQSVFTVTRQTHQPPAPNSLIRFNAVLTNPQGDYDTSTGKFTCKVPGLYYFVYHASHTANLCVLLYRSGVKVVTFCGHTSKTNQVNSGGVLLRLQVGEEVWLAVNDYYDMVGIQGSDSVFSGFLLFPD
Put plainly: ELISA, titrated antibody coated, human C1q detected. As for the experimental part:
It was also determined that Exemplary Anti-CD40 Antibody 1 is not capable of activating complement by testing its binding to C1q. The assay (adapted from Idusogie et al., J. Immunol., 164:4178-84 (2000)) was conducted in an ELISA format where titrations of the test antibodies are coated in the wells and binding of human C1q is detected with chicken IgY anti-human C1q (custom reagent from Ayes Labs) followed by a donkey F(ab′) 2 anti-chicken IgY HRP conjugate.
On the technique in general: An ELISA detects its analyte on a solid surface through an enzyme-linked reagent.

Where “and” joins values, the source holds several entries; their conditions need not be identical. Equal values may be shown once.

T1 sequence (P25942 20-277 limits assumed): as the sequence (P25942 20-277 H78Q limits assumed) above, with Q59H counted along it
T3 sequence (P08637 17-208 F176V limits assumed): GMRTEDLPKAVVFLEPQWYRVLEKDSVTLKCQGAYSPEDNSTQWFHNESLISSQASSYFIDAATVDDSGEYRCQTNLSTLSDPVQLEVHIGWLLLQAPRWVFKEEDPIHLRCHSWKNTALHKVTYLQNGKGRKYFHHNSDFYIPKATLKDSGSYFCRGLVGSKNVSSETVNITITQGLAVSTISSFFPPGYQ
T4 sequence (P12314 16-292 limits assumed): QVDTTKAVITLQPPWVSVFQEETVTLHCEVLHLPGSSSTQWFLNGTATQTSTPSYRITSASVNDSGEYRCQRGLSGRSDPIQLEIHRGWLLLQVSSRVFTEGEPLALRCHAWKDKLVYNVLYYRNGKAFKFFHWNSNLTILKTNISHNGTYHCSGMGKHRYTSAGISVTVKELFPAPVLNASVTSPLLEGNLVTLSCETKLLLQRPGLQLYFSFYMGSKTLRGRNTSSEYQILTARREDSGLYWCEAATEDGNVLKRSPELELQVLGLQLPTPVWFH

B1: Agly hAKH3 IgG4P/IgG1 (antibody, V domains shown)
VH: EVQLVQSGAEVKKPGASVKVSCKASGYTFTTFPIEWVRQAPGQGLEWMGNFHPYNDDTKYNEKFKGRVTLTADKSTSTAYMELSRLRSEDTAVYYCARRGKLPFDSWGQGTTVTVSS
VL: DIQMTQSPSSLSASVGDRVTISCRASQDISNYLNWYQQKPGKVPKLLIYFTSRLRSGVPSRFSGSGSGTDYTLTISSLQPEDVATYYCQQDRKLPWTFGQGTKLEIK
As a reminder, the EC50 is the concentration at which the effect is half-maximal. High values mean lower potency in that assay, low ones higher potency in that assay. With B1, the “IC50, inhibition of CD40L+ Jurkat (D1.1) T cell stimulation of primary human B cells (ICAM-1/CD54 up-regulation, flow cytometry), five normal donors” value in test [1] is 11 ng/mL and 0.07 nM. Also, the response in [2] was half-maximal at 0.5 nM (EC50).

B2: Exemplary Anti-CD40 Antibody 1 (antibody, human IgG4 S228P, kappa)
heavy: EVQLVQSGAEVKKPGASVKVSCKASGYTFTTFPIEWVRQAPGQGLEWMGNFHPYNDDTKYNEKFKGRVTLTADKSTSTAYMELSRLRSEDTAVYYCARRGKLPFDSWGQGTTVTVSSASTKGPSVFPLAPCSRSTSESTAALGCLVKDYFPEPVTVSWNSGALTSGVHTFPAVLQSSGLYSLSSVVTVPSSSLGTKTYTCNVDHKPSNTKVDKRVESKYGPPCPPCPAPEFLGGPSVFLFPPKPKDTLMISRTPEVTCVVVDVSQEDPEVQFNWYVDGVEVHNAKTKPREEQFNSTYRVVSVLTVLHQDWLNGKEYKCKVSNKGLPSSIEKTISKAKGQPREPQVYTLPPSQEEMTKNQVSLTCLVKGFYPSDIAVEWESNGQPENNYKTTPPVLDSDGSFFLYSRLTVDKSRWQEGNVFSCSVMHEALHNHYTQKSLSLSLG
light: DIQMTQSPSSLSASVGDRVTISCRASQDISNYLNWYQQKPGKVPKLLIYFTSRLRSGVPSRFSGSGSGTDYTLTISSLQPEDVATYYCQQDRKLPWTFGQGTKLEIKRTVAAPSVFIFPPSDEQLKSGTASVVCLLNNFYPREAKVQWKVDNALQSGNSQESVTEQDSKDSTYSLSSTLTLSKADYEKHKVYACEVTHQGLSSPVTKSFNRGEC
modifications: Alexa647 conjugate in some whole-blood assays; N-linked glycan on the heavy chain; neither is carried by the letters.
notes: Humanized IgG4/kappa with S228P (Kabat); also called hAKH3 IgG4P; AKH3 IgG4P; copies: 2 + 2
As for B2, the results for the binding result in test [3], in [8] and in [9] were “no binding”, “binds” and “no binding”, respectively. The “fold reduction of binding against WT IgG1 (chAKH3 IgG1)” value was roughly 200 fold in test [4], roughly 150 fold in test [5], roughly 5 fold in test [6] and roughly 5 fold in test [7].
